T1: KRAS G12D peptide on HLA-A*11:01 (human)
T1 peptide: VVVGADGVGK

T2: KRAS G12V peptide on HLA-A*02:01 (human)
T2 peptide: KLVVVGAVGV

B1: TCR2 (TCR, V domains shown)
Valpha: AQKVTQAQTEISVVEKEDVTLDCVYETRDTTYYLFWYKQPPSGELVFLIRRNSFDEQNEISGRYSWNFQKSTSSFNFTITASQVVDSAVYFCALSEGSNYKLTFGKGTLLTVNP
Vbeta: EAGVAQSPRYKIIEKRQSVAFWCNPISGHATLYWYQQILGQGPKLLIQFQNNGVVDDSQLPKDRFSAERLKGVDSTLKIQPAKLEDSAVYLCASSSTGGTGETQYFGPGTRLLVL
B2: TCR5 (TCR, V domains shown)
Valpha: ILNVEQSPQSLHVQEGDSTNFTCSFPSSNFYALHWYRWETAKSPEALFVMTLNGDEKKKGRISATLNTKEGYSYLYIKGSQPEDSATYLCASADGANNLFFGTGTRLTVIP
Vbeta: SAVISQKPSRDICQRGTSLTIQCQVDSQVTMMFWYRQQPRQSLTLIATANQGSEATYESGFVIDKFPISRPNLTFSTLTVSNMSPEDSSIYLCSVGPSGTGPGYTFGSGTRLTVV
B3: TCR6 (TCR, V domains shown)
Valpha: AQTVTQSQPEMSVQEAETVTLSCTYDTSESDYYLFWYKQPPSRQMILVIRQEAYKQQNATENRFSVNFQKAAKSFSLKISDSQLGDAAMYFCAYTNSGNTPLVFGKGTRLSVIA
Vbeta: DAGVIQSPRHEVTEMGQEVTLRCKPISGHDYLFWYRQTMMRGLELLIYFNNNVPIDDSGMPEDRFSAKMPNASFSTLKIQPSEPRDSAVYFCASKPGPRSWREGAFFGQGTRLTVV
B4: TCR1 (TCR, V domains shown)
Valpha: AQKVTQAQTEISVVEKEDVTLDCVYETRDTTYYLFWYKQPPSGELVFLIRRNSFDEQNEISGRYSWNFQKSTSSFNFTITASQVVDSAVYFCALSEVTGAGSYQLTFGKGTKLSVIP
Vbeta: DGGITQSPKYLFRKEGQNVTLSCEQNLNHDAMYWYRQDPGQGLRLIYYSQIVNDFQKGDIAEGYSVSREKKESFPLTVTSAQKNPTAFYLCASSIGAGQHNSPLHFGNGTRLTVT
B5: TCR3 (TCR, V domains shown)
Valpha: AQKITQTQPGMFVQEKEAVTLDCTYDTSDPSYGLFWYKQPSSGEMIFLIYQGSYDQQNATEGRYSLNFQKARKSANLVISASQLGDSAMYFCVGNEKLTFGTGTRLTIIP
Vbeta: KAGVTQTPRYLIKTRGQQVTLSCSPISGHRSVSWYQQTPGQGLQFLFEYFSETQRNKGNFPGRFSGRQFSNSRSEMNVSTLELGDSALYLCASSLATGGYNSPLHFGNGTRLTVT
B6: TCR4 (TCR, V domains shown)
Valpha: GEDVEQSLFLSVREGDSSVINCTYTDSSSTYLYWYKQEPGAGLQLLTYIFSNMDMKQDQRLTVLLNKKDKHLSLRIADTQTGDSAIYFCAERRGNMLTFGGGTRLMVKP
Vbeta: NAGVTQTPKFRILKIGQSMTLQCTQDMNHNYMYWYRQDPGMGLKLIYYSVGAGITDKGEVPNGYNVSRSTTEDFPLRLELAAPSQTSVYFCASSRTSGLTDTQYFGPGTRLTVL
B7: TCR10 (TCR, V domains shown)
Valpha: GEDVEQSLFLSVREGDSSVINCTYTDSSSTYLYWYKQEPGAGLQLLTYIFSNMDMKQDQRLTVLLNKKDKHLSLRIADTQTGDSAIYFCAEMKDTDKLIFGTGTRLQVFP
Vbeta: DGGITQSPKYLFRKEGQNVTLSCEQNLNHDAMYWYRQDPGQGLRLIYYSQIVNDFQKGDIAEGYSVSREKKESFPLTVTSAQKNPTAFYLCASTQVGTGELFFGEGSRLTVL
B8: TCR11 (TCR, V domains shown)
Valpha: GEDVEQSLFLSVREGDSSVINCTYTDSSSTYLYWYKQEPGAGLQLLTYIFSNMDMKQDQRLTVLLNKKDKHLSLRIADTQTGDSAIYFCAEMKDTDKLIFGTGTRLQVFP
Vbeta: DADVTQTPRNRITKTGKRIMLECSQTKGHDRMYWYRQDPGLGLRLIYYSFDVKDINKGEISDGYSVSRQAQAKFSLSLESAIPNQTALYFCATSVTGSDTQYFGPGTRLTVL
B9: TCR13 (TCR, V domains shown)
Valpha: GEDVEQSLFLSVREGDSSVINCTYTDSSSTYLYWYKQEPGAGLQLLTYIFSNMDMKQDQRLTVLLNKKDKHLSLRIADTQTGDSAIYFCAERRDTDKLIFGTGTRLQVFP
Vbeta: GAVVSQHPSWVICKSGTSVKIECRSLDFQATTMFWYRQFPKQSLMLMATSNEGSKATYEQGVEKDKFLINHASLTLSTLTVTSAHPEDSSFYICSAWGANTGELFFGEGSRLTVL
B10: TCR12 (TCR, V domains shown)
Valpha: GEDVEQSLFLSVREGDSSVINCTYTDSSSTYLYWYKQEPGAGLQLLTYIFSNMDMKQDQRLTVLLNKKDKHLSLRIADTQTGDSAIYFCAEIRDTGKLIFGQGTTLQVKP
Vbeta: DVKVTQSSRYLVKRTGEKVFLECVQDMDHENMFWYRQDPGLGLRLIYFSYDVKMKEKGDIPEGYSVSREKKERFSLILESASTNQTSMYLCASSRQGTDTQYFGPGTRLTVL
B11: TCR9 (TCR, V domains shown)
Valpha: GEDVEQSLFLSVREGDSSVINCTYTDSSSTYLYWYKQEPGAGLQLLTYIFSNMDMKQDQRLTVLLNKKDKHLSLRIADTQTGDSAIYFCAEIPGDSSYKLIFGSGTRLLVRP
Vbeta: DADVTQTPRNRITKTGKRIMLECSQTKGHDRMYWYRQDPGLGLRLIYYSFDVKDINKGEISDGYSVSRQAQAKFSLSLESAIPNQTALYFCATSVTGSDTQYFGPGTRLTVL
B12: TCR16 (TCR, V domains shown)
Valpha: DQQVKQNSPSLSVQEGRISILNCDYTNSMFDYFLWYKKYPAEGPTFLISISSIKDKNEDGRFTVFLNKSAKHLSLHIVPSQPGDSAVYFCAVNRDDKIIFGKGTRLHILP
Vbeta: DTGVSQDPRHKITKRGQNVTFRCDPISEHNRLYWYRQTLGQGPEFLTYFQNEAQLEKSRLLSDRFSAERPKGSFSTLEIQRTEQGDSAMYLCASSSELAGGINEQFFGPGTRLTVL
B13: TCR8 (TCR, V domains shown)
Valpha: GEDVEQSLFLSVREGDSSVINCTYTDSSSTYLYWYKQEPGAGLQLLTYIFSNMDMKQDQRLTVLLNKKDKHLSLRIADTQTGDSAIYFCAESIRDTDKLIFGTGTRLQVFP
Vbeta: GAVVSQHPSRVICKSGTSVKIECRSLDFQATTMFWYRQFPKKSLMLMATSNEGSKATYEQGVEKDKFLINHASLTLSTLTVTSAHPEDSSFYICSARDTSGTTRNEQFFGPGTRLTVL
B14: TCR15 (TCR, V domains shown)
Valpha: GEDVEQSLFLSVREGDSSVINCTYTDSSSTYLYWYKQEPGAGLQLLTYIFSNMDMKQDQRLTVLLNKKDKHLSLRIADTQTGDSAIYFCADFLRDTDKLIFGTGTRLQVFP
Vbeta: GAVVSQHPSWVICKSGTSVKIECRSLDFQATTMFWYRQFPKQSLMLMATSNEGSKATYEQGVEKDKFLINHASLTLSTLTVTSAHPEDSSFYICSARDRTSTDTQYFGPGTRLTVL
B15: TCR14 (TCR, V domains shown)
Valpha: AQKITQTQPGMFVQEKEAVTLDCTYDTSDPSYGLFWYKQPSSGEMIFLIYQGSYDQQNATEGRYSLNFQKARKSANLVISASQLGDSAMYFCAMRGMDSSYKLIFGSGTRLLVRP
Vbeta: DVKVTQSSRYLVKRTGEKVFLECVQDMDHENMFWYRQDPGLGLRLIYFSYDVKMKEKGDIPEGYSVSREKKERFSLILESASTNQTSMYLCATRTGQQAGSKDTDTQYFGPGTRLTVL

For one assay, the target named is T1, KRAS G12D peptide on HLA-A*11:01. Briefly: multimer staining.
As to B1, the binding result was “recognises”.

Take B2: the binding result is listed as “recognises”.

As for B3, the binding result is recorded as “recognises”.

B4: the binding result is on record as “recognises”. Turning to B5, the binding result is “recognises”. B6: the binding result is on record as “recognises”.

Another assay deals with T2, KRAS G12V peptide on HLA-A*02:01. As to the kind of experiment: multimer staining.
For the molecule B7, the binding result is “recognises”. Still for that read-out and setting: to B8 belongs “recognises”; to B9, “recognises”. On to B10, for which the binding result is given as “recognises”. Consider B11, for which the binding result is recorded as “recognises”.

In the case of B12, the binding result was “recognises”. With B13, the binding result is listed as “recognises”.

In the case of B14, the binding result was “recognises”. Consider B15, for which the binding result is given as “recognises”.

Values taken from US20260240907A1 (published 2026).
